Data reported in patent US20250051464A1 (IMMUNOME, published 2025).
Residue numbers refer to the chain shown, from its start. Values belong to the binder of their own block, whether it stands above or below them.

Experiments:
[1] = molecular target: T1, C-terminally His-tagged hEphA2-FN2 (Thr437-Asn534+His tag) (human, UniProt P29317 437-534); experiment: SPR Biacore T200, 25 C, mIgG2a captured by anti-mouse Fc, FN2-His as analyte, steady-state fit, monovalent
T1 construct: SPR analyte; also called FN2 domain of hEphA2
Method: Binding of antibodies to the FN2 domain of hEphA2 was measured using the Biacore® T200 SPR system at 25° C. using HBS-EP+ buffer (0.01 M HEPES pH 7.4, 0.15 M NaCl, 3 mM EDTA, 0.005% v/v Surfactant P20). Antibodies in mIgG2a format were captured at levels between 475-715 RU via an anti-mouse Fc antibody immobilized to a CM5 chip. Binding was assessed using a titration of C-terminally His-tagged hEphA2-FN2 (Thr437-Asn534+His tag) associated for 30 s or 75 s at 30 uL/min. Data was double-reference subtracted using both a surface without captured antibody and from injections of HBS-EP+ buffer. The equilibrium response was measured at 4 seconds before the end of association with a window of 5 seconds and fit using the Biacore T200 Evaluation Software 3.1 with the Steady State Affinity Model.

[2] = molecular target: T2, human EphA2 (ephrin receptor A2), on cells (human, UniProt P29317 24-976); experiment: flow cytometry binding on A549 cells
T2 construct: Used for HEK293 transfectants, A549 and other human tumor cell lines
Method: (§1) Surface binding of the antibodies to in vitro grown cell lines was assessed by flow cytometry. Tumor cells were detached from their culture plate using Versene and counted. Cells were staining in BSA-containing buffer with primary antibody for 30 minutes at 4° C. with shaking. Following, cells were washed and stained with secondary PE-labeled antibody for 30 minutes at 4° C. with shaking. Before analysis on an Intellicyt iQue3 scanner, cells were counterstained with DAPI. MedFI values from live, single cells was expressed as fold over isotype control.

[3] = molecular target: T2, human EphA2 (ephrin receptor A2), on …; experiment: flow cytometry on A549 cells
Method: as §1

T2 sequence (P29317 24-976 limits assumed): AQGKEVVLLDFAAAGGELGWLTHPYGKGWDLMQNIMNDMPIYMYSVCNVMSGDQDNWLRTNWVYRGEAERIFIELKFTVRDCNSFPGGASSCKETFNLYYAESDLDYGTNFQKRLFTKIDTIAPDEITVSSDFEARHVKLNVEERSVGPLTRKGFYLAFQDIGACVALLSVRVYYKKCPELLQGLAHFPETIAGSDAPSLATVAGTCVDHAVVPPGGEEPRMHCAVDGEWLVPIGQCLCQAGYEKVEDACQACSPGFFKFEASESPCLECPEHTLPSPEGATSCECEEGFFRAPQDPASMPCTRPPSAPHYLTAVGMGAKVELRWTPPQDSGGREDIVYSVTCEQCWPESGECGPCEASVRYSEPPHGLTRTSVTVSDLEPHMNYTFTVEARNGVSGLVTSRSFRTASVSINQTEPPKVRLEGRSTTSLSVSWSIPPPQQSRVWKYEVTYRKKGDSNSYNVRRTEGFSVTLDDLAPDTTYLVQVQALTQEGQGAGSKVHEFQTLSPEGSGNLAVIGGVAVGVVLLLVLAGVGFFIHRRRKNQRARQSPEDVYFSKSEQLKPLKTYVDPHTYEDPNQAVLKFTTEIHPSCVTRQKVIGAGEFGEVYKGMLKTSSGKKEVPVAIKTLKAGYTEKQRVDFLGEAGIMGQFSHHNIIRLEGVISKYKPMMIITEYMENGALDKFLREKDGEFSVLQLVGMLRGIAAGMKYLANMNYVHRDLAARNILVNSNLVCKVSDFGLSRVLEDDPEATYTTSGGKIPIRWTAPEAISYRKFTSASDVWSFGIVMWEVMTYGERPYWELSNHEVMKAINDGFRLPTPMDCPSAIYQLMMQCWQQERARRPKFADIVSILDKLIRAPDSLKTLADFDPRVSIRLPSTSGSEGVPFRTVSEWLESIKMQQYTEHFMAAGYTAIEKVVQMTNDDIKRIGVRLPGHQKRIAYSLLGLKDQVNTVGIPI
T1 sequence (P29317 437-534 limits assumed): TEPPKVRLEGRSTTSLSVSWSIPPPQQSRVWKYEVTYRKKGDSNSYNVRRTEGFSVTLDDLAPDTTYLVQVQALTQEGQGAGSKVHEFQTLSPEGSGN

B1: AB-008873 (mouse IgG2a format) (antibody, V domains shown)
VH: QVQLQQWGAGLLKPSETLSLTCAVYGGSFSDYYWSWIRQPPGKGLEWIGEVNHRGSINYNNYNPSLKSRVTISVDPSKNQFSLKLTSVTAADTAVYYCAKPLRPHCTNGVCYSGDAFDIWGQGTMVTVAS
VL: SYVLTQPPSVSVAPGQTARITCGGNNIGSKNVHWYQQKPGQAPVLVVYDDSDRPSGIPEQFSGSNSGNTATLTISRVEAGDEADYYCQVWDSSSDHLVFGGGTKLTVLG
Kd [1]: 2260 nM

B2: AB-009808 (antibody, mouse IgG2a, V domains shown)
VH: QVQLQQWGAGLLKPSETLSLTCAVYGGSFSDYYWSWIRQPPGKGLEWIGEINHSGSTNYNPSLKSRVTISVDPSKNQFSLKLTSVTAADTAVYYCAKPFRPHCTNGVCYSGDAFDIWGQGTMVTVSS
VL: SYVLTQPPSVSVAPGQTARITCGGNNIGSKNVHWYQQKPGQAPVLVVYDDSDRPSGIPEQFSGSNSGNTATLTISRVEAGDEADYYCQVWDSSSDHLVFGGGTKLTVL
Flow Delta activity (MedFI) [2]: 29500 MedFI

B3: AB-010363 (antibody, V domains shown)
VH: B1 VH with D31G, V51I, P76T, T86S
VL: B2 VL with Q60R, L97V
notes: Tested in mIgG2a format
Kd [1]: 1310 nM

B4: AB-009807 (antibody, mouse IgG2a, V domains shown)
VH: B2 VH with S30N, I51V, N58S, P73T, T83S
VL: B2 VL with V44A
Flow Delta activity (MedFI) [2]: 12700 MedFI

B5: AB-009813 (antibody, mouse IgG2a, V domains shown)
VH: B1 VH with R54A
VL: B2 VL
Delta (flow) [3]: 578000
EC50 [3]: 6.8 nM

B8: AB-009812 (antibody, mouse IgG2a, V domains shown)
VH: B1 VH with R54S
VL: B2 VL
Delta (flow) [3]: 568000
EC50 [3]: 9.6 nM

B9: AB-009814 (antibody, mouse IgG2a, V domains shown)
VH: B2 VH with I51V, S54R, T57I, F99L, S126A
VL: B2 VL
Delta (flow) [3]: 407000
EC50 [3]: 11.5 nM

B10: AB-009816 (antibody, mouse IgG2a, V domains shown)
VH: B1 VH with P76A
VL: B2 VL
Delta (flow) [3]: 670000
EC50 [3]: 5.5 nM

More lines, now with the values ahead:

Delta (flow) [3]: 745000
EC50 [3]: 5.5 nM
B6: AB-009815 (antibody, mouse IgG2a, V domains shown)
VH: B1 VH with P76T
VL: B2 VL

Kd [1]: 1110 nM
B7: AB-010361 (antibody, mouse IgG2a, V domains shown)
VH: B1 VH with D31G, V51I, P76T, T86S
VL: B2 VL with L97V
notes: Tested with mouse IgG2a constant regions (mIgG2a format)

Flow Delta activity (MedFI) [2]: 75100 MedFI
B11: AB-009805 (antibody, V domains shown)
VH: B2 VH with F29L, Y33H, P73T, T83S, T86S, Y109H, V123A
VL: B2 VL
